Key:
All Septins [1] = experiment: HaloLink pulldown from MV3 cells, LC-MS/MS
All Septins [2] = experiment: HaloLink pulldown from unperturbed A375 cells, LC-MS/MS

- % of total protein abundance (All Septins [1]): 8.06%
- fold change between lysate and pulldown (% of total protein abundance) (All Septins [1]): 35.9 fold
- % of total protein abundance (All Septins [2]): 7.04%
- fold change between lysate and pulldown (% of total protein abundance) (All Septins [2]): 56 fold
B1: mouse SEPT6-HALO (protein, UniProt Q9R1T4 2-434, looked up, not shown: small tags and cut ends; large carriers)
chain: AAADIARQVGEDCRTVPLAGHVGFDSLPDQLVNKSVSQGFCFNILCVGETGLGKSTLMDTLFNTKFEGEPATHTQPGVQLQSNTYDLQESNVGLKLTIVSTVGFGDQINKEDSYKPIVEFIDAQFEAYLQEELKIRRVLHSYHDSRIHVCLYFIAPTGHSLKSLDLVTMKKLDSKVNIIPVIAKSDAISKSELAKFKIKITSELVSNGVQIYQFPTDDESVSEINGTMNAHLPFAVVGSTEEVKIGNKMMRARQYPWGTVQVENEAHCDFVKLREMLIRVNMEDLREQTHARHYELYRRCKLEEMGFKDTDPDSKPFSLQETYEAKRNEFLGELQKKEEEMRQMFVQRVKEKEAELKEAEKELHEKFDRLKKLHQEEKKKLEDKKKCLDEEMNAFKQRKAAAELLQSQGSQAGGSQTLKRDKEKKNNPWLCIE
